According to patent publication USRE49847 (dated 2024):

T1: soluble CD22-Fc (R&D Systems) (UniProt P20273 20-687)
T1 construct: Bought reagent used to stain CD22 CARs; not shown: Fc part; detected with anti-human IgG Fc-gamma secondary
T1 sequence (looked up): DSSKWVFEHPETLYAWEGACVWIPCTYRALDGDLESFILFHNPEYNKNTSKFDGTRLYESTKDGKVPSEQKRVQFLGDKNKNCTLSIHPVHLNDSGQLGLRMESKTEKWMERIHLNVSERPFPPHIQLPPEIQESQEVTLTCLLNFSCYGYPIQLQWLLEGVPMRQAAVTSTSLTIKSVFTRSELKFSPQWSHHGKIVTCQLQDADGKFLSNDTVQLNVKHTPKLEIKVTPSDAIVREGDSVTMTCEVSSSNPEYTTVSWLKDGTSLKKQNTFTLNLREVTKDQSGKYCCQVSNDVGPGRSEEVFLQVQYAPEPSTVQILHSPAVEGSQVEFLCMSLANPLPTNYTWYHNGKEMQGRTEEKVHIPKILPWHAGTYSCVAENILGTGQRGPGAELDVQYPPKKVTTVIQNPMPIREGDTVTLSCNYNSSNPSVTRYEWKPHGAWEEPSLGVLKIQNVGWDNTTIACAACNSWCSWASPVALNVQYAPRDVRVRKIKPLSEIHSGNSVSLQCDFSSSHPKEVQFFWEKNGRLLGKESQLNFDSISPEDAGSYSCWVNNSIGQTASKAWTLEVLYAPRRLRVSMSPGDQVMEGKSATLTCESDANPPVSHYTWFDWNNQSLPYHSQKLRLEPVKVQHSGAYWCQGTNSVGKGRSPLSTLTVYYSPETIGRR


Target: T1, soluble CD22-Fc (R&D Systems)
Test: FACS surface staining of transduced JNL cells with CD22-Fc

Row | binding result | Binder
1 | binds | tandem CD19/CD22 CAR construct 172 (other, Distal anti-CD19 scFv, GGGGS, proximal anti-CD22 scFv H/L; leader 1-21 left out; end of range counted without it; also called CG#c172; c172) EIVMTQSPATLSLSPGERATLSCRASQDISKYLNWYQQKPGQAPRLLIYHTSRLHSGIPARFSGSGSGTDYTLTISSLQPEDFAVYFCQQGNTLPYTFGQGTKLEIKGGGGSGGGGSGGGGSQVQLQESGPGLVKPSETLSLTCTVSGVSLPDYGVSWIRQPPGKGLEWIGVIWGSETTYYQSSLKSRVTISKDNSKNQVSLKLSSVTAADTAVYYCAKHYYYGGSYAMDYWGQGTLVTVSSGGGGSEVQLQQSGPGLVKPSQTLSLTCAISGDSMLSNSDTWNWIRQSPSRGLEWLGRTYHRSTWYDDYASSVRGRVSINVDTSKNQYSLQLNAVTPEDTGVYYCARVRLQDGNSWSDAFDVWGQGTMVTVSSGGGGSGGGGSGGGGSQSALTQPASASGSPGQSVTISCTGTSSDVGGYNYVSWYQQHPGKAPKLMIYDVSNRPSGVSNRFSGSKSGNTASLTISGLQAEDEADYYCSSYTSSSTLYVFGTGTQLTVLTTTPAPRPPTPAPTIASQPLSLRPEACRPAAGGAVHTRGLDFACDIYIWAPLAGTCGVLLLSLVITLYCKRGRKKLLYIFKQPFMRPVQTTQEEDGCSCRFPEEEEGGCELRVKFSRSADAPAYQQGQNQLYNELNLGRREEYDVLDKRRGRDPEMGGKPRRKNPQEGLYNELQKDKMAEAYSEIGMKGERRRGKGHDGLYQGLSTATKDTYDALHMQALPPR
2 | binds | tandem CD22/CD19 CAR construct 182 (other, Distal anti-CD22 scFv H/L, GGGGS, proximal anti-CD19 scFv; leader 1-21 left out; also called CG#c182; c182) EVQLQQSGPGLVKPSQTLSLTCAISGDSMLSNSDTWNWIRQSPSRGLEWLGRTYHRSTWYDDYASSVRGRVSINVDTSKNQYSLQLNAVTPEDTGVYYCARVRLQDGNSWSDAFDVWGQGTMVTVSSGGGGSGGGGSGGGGSQSALTQPASASGSPGQSVTISCTGTSSDVGGYNYVSWYQQHPGKAPKLMIYDVSNRPSGVSNRFSGSKSGNTASLTISGLQAEDEADYYCSSYTSSSTLYVFGTGTQLTVLGGGGSEIVMTQSPATLSLSPGERATLSCRASQDISKYLNWYQQKPGQAPRLLIYHTSRLHSGIPARFSGSGSGTDYTLTISSLQPEDFAVYFCQQGNTLPYTFGQGTKLEIKGGGGSGGGGSGGGGSQVQLQESGPGLVKPSETLSLTCTVSGVSLPDYGVSWIRQPPGKGLEWIGVIWGSETTYYQSSLKSRVTISKDNSKNQVSLKLSSVTAADTAVYYCAKHYYYGGSYAMDYWGQGTLVTVSSTTTPAPRPPTPAPTIASQPLSLRPEACRPAAGGAVHTRGLDFACDIYIWAPLAGTCGVLLLSLVITLYCKRGRKKLLYIFKQPFMRPVQTTQEEDGCSCRFPEEEEGGCELRVKFSRSADAPAYQQGQNQLYNELNLGRREEYDVLDKRRGRDPEMGGKPRRKNPQEGLYNELQKDKMAEAYSEIGMKGERRRGKGHDGLYQGLSTATKDTYDALHMQALPPR
3 | binds | tandem CD22/CD19 CAR construct 181 (other, Distal anti-CD22 scFv H/L, LAEAAAK, proximal anti-CD19 scFv; leader 1-21 left out; also called CG#c181; c181) EVQLQQSGPGLVKPSQTLSLTCAISGDSMLSNSDTWNWIRQSPSRGLEWLGRTYHRSTWYDDYASSVRGRVSINVDTSKNQYSLQLNAVTPEDTGVYYCARVRLQDGNSWSDAFDVWGQGTMVTVSSGGGGSGGGGSGGGGSQSALTQPASASGSPGQSVTISCTGTSSDVGGYNYVSWYQQHPGKAPKLMIYDVSNRPSGVSNRFSGSKSGNTASLTISGLQAEDEADYYCSSYTSSSTLYVFGTGTQLTVLLAEAAAKEIVMTQSPATLSLSPGERATLSCRASQDISKYLNWYQQKPGQAPRLLIYHTSRLHSGIPARFSGSGSGTDYTLTISSLQPEDFAVYFCQQGNTLPYTFGQGTKLEIKGGGGSGGGGSGGGGSQVQLQESGPGLVKPSETLSLTCTVSGVSLPDYGVSWIRQPPGKGLEWIGVIWGSETTYYQSSLKSRVTISKDNSKNQVSLKLSSVTAADTAVYYCAKHYYYGGSYAMDYWGQGTLVTVSSTTTPAPRPPTPAPTIASQPLSLRPEACRPAAGGAVHTRGLDFACDIYIWAPLAGTCGVLLLSLVITLYCKRGRKKLLYIFKQPFMRPVQTTQEEDGCSCRFPEEEEGGCELRVKFSRSADAPAYQQGQNQLYNELNLGRREEYDVLDKRRGRDPEMGGKPRRKNPQEGLYNELQKDKMAEAYSEIGMKGERRRGKGHDGLYQGLSTATKDTYDALHMQALPPR
4 | binds | control anti-CD22 CAR CAR22-65 (other, also called CAR22-65 Long; not shown: hinge, transmembrane, 4-1BB and CD3zeta parts of the CAR) EVQLQQSGPGLVKPSQTLSLTCAISGDSMLSNSDTWNWIRQSPSRGLEWLGRTYHRSTWYDDYASSVRGRVSINVDTSKNQYSLQLNAVTPEDTGVYYCARVRLQDGNSWSDAFDVWGQGTMVTVSSGGGGSGGGGSGGGGSQSALTQPASASGSPGQSVTISCTGTSSDVGGYNYVSWYQQHPGKAPKLMIYDVSNRPSGVSNRFSGSKSGNTASLTISGLQAEDEADYYCSSYTSSSTLYVFGTGTQLTVL
5 | binds | tandem CD19/CD22 CAR construct 171 (other, Distal anti-CD19 scFv, LAEAAAK, proximal anti-CD22 scFv H/L; also called CG#c171; c171) EIVMTQSPATLSLSPGERATLSCRASQDISKYLNWYQQKPGQAPRLLIYHTSRLHSGIPARFSGSGSGTDYTLTISSLQPEDFAVYFCQQGNTLPYTFGQGTKLEIKGGGGSGGGGSGGGGSQVQLQESGPGLVKPSETLSLTCTVSGVSLPDYGVSWIRQPPGKGLEWIGVIWGSETTYYQSSLKSRVTISKDNSKNQVSLKLSSVTAADTAVYYCAKHYYYGGSYAMDYWGQGTLVTVSSLAEAAAKEVQLQQSGPGLVKPSQTLSLTCAISGDSMLSNSDTWNWIRQSPSRGLEWLGRTYHRSTWYDDYASSVRGRVSINVDTSKNQYSLQLNAVTPEDTGVYYCARVRLQDGNSWSDAFDVWGQGTMVTVSSGGGGSGGGGSGGGGSQSALTQPASASGSPGQSVTISCTGTSSDVGGYNYVSWYQQHPGKAPKLMIYDVSNRPSGVSNRFSGSKSGNTASLTISGLQAEDEADYYCSSYTSSSTLYVFGTGTQLTVLTTTPAPRPPTPAPTIASQPLSLRPEACRPAAGGAVHTRGLDFACDIYIWAPLAGTCGVLLLSLVITLYCKRGRKKLLYIFKQPFMRPVQTTQEEDGCSCRFPEEEEGGCELRVKFSRSADAPAYQQGQNQLYNELNLGRREEYDVLDKRRGRDPEMGGKPRRKNPQEGLYNELQKDKMAEAYSEIGMKGERRRGKGHDGLYQGLSTATKDTYDALHMQALPPR
6 | binds | tandem CD19/CD22 CAR construct 173 (other, Distal anti-CD19 scFv, LAEAAAK, proximal anti-CD22 scFv H/L with short linker; leader 1-21 left out; also called CG#c173; c173) EIVMTQSPATLSLSPGERATLSCRASQDISKYLNWYQQKPGQAPRLLIYHTSRLHSGIPARFSGSGSGTDYTLTISSLQPEDFAVYFCQQGNTLPYTFGQGTKLEIKGGGGSGGGGSGGGGSQVQLQESGPGLVKPSETLSLTCTVSGVSLPDYGVSWIRQPPGKGLEWIGVIWGSETTYYQSSLKSRVTISKDNSKNQVSLKLSSVTAADTAVYYCAKHYYYGGSYAMDYWGQGTLVTVSSLAEAAAKEVQLQQSGPGLVKPSQTLSLTCAISGDSMLSNSDTWNWIRQSPSRGLEWLGRTYHRSTWYDDYASSVRGRVSINVDTSKNQYSLQLNAVTPEDTGVYYCARVRLQDGNSWSDAFDVWGQGTMVTVSSGGGGSQSALTQPASASGSPGQSVTISCTGTSSDVGGYNYVSWYQQHPGKAPKLMIYDVSNRPSGVSNRFSGSKSGNTASLTISGLQAEDEADYYCSSYTSSSTLYVFGTGTQLTVLTTTPAPRPPTPAPTIASQPLSLRPEACRPAAGGAVHTRGLDFACDIYIWAPLAGTCGVLLLSLVITLYCKRGRKKLLYIFKQPFMRPVQTTQEEDGCSCRFPEEEEGGCELRVKFSRSADAPAYQQGQNQLYNELNLGRREEYDVLDKRRGRDPEMGGKPRRKNPQEGLYNELQKDKMAEAYSEIGMKGERRRGKGHDGLYQGLSTATKDTYDALHMQALPPR
7 | binds | tandem CD19/CD22 CAR construct 174 (other, Distal anti-CD19 scFv, GGGGS, proximal anti-CD22 scFv H/L with short linker; leader 1-21 left out; also called CG#c174; c174) EIVMTQSPATLSLSPGERATLSCRASQDISKYLNWYQQKPGQAPRLLIYHTSRLHSGIPARFSGSGSGTDYTLTISSLQPEDFAVYFCQQGNTLPYTFGQGTKLEIKGGGGSGGGGSGGGGSQVQLQESGPGLVKPSETLSLTCTVSGVSLPDYGVSWIRQPPGKGLEWIGVIWGSETTYYQSSLKSRVTISKDNSKNQVSLKLSSVTAADTAVYYCAKHYYYGGSYAMDYWGQGTLVTVSSGGGGSEVQLQQSGPGLVKPSQTLSLTCAISGDSMLSNSDTWNWIRQSPSRGLEWLGRTYHRSTWYDDYASSVRGRVSINVDTSKNQYSLQLNAVTPEDTGVYYCARVRLQDGNSWSDAFDVWGQGTMVTVSSGGGGSQSALTQPASASGSPGQSVTISCTGTSSDVGGYNYVSWYQQHPGKAPKLMIYDVSNRPSGVSNRFSGSKSGNTASLTISGLQAEDEADYYCSSYTSSSTLYVFGTGTQLTVLTTTPAPRPPTPAPTIASQPLSLRPEACRPAAGGAVHTRGLDFACDIYIWAPLAGTCGVLLLSLVITLYCKRGRKKLLYIFKQPFMRPVQTTQEEDGCSCRFPEEEEGGCELRVKFSRSADAPAYQQGQNQLYNELNLGRREEYDVLDKRRGRDPEMGGKPRRKNPQEGLYNELQKDKMAEAYSEIGMKGERRRGKGHDGLYQGLSTATKDTYDALHMQALPPR
8 | binds | tandem CD22/CD19 CAR construct 183 (other, Distal anti-CD22 scFv H/L short linker, LAEAAAK, proximal anti-CD19 scFv; leader 1-21 left out; also called CG#c183; c183) EVQLQQSGPGLVKPSQTLSLTCAISGDSMLSNSDTWNWIRQSPSRGLEWLGRTYHRSTWYDDYASSVRGRVSINVDTSKNQYSLQLNAVTPEDTGVYYCARVRLQDGNSWSDAFDVWGQGTMVTVSSGGGGSQSALTQPASASGSPGQSVTISCTGTSSDVGGYNYVSWYQQHPGKAPKLMIYDVSNRPSGVSNRFSGSKSGNTASLTISGLQAEDEADYYCSSYTSSSTLYVFGTGTQLTVLLAEAAAKEIVMTQSPATLSLSPGERATLSCRASQDISKYLNWYQQKPGQAPRLLIYHTSRLHSGIPARFSGSGSGTDYTLTISSLQPEDFAVYFCQQGNTLPYTFGQGTKLEIKGGGGSGGGGSGGGGSQVQLQESGPGLVKPSETLSLTCTVSGVSLPDYGVSWIRQPPGKGLEWIGVIWGSETTYYQSSLKSRVTISKDNSKNQVSLKLSSVTAADTAVYYCAKHYYYGGSYAMDYWGQGTLVTVSSTTTPAPRPPTPAPTIASQPLSLRPEACRPAAGGAVHTRGLDFACDIYIWAPLAGTCGVLLLSLVITLYCKRGRKKLLYIFKQPFMRPVQTTQEEDGCSCRFPEEEEGGCELRVKFSRSADAPAYQQGQNQLYNELNLGRREEYDVLDKRRGRDPEMGGKPRRKNPQEGLYNELQKDKMAEAYSEIGMKGERRRGKGHDGLYQGLSTATKDTYDALHMQALPPR
